{"source": "patent US20230183351A1", "about": "(AVENCELL EUROPE, published 2023)", "binders": {"B1": {"name": "TM-PD-L1-scFv5 (scFv)", "scFv": "GQVQLVQSGAEVKKPGASVKVSCKASGYTFTDYGFSWVRQAPGQGLEWMGWITAYNGNTNYAQKLQGRVTMTTDTSTSTVYMELRSLRSDDTAVYYCARDYFYGMDVWGQGTTVTVSSGGGGSGGGGSGGGGSEIVLTQSPATLSLSPGERATLSCRASQSVSSYLVWYQQKPGQAPRLLIYDASNRATGIPARFSGSGSGTDFTLTISSLEPEDFAVYYCQQRSNWPRTFGQGTKVEIKAAAKPLPEVTDEYARGGPGGGGSHHHHHHHH", "notes": "also called TMPD-L1v5"}}, "target": "T1, PD-L1 on PD-L1-positive target cell lines DU-145 and U-251 (human, UniProt Q9NZQ7 19-290)", "T1 construct": "also called Programmed death ligand 1; CD274", "T1 sequence (Q9NZQ7 19-290)": "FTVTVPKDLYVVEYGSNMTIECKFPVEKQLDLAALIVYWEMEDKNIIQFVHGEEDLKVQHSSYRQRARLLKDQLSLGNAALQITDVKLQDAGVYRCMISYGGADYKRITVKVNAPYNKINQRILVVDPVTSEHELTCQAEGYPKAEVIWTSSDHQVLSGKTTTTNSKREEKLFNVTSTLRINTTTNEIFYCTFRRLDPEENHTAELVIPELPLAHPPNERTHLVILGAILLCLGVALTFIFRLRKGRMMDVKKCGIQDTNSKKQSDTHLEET", "experiment": "flow cytometry on DU-145 and U-251 cells, shown as % binding of max over time at 4 C or 37 C", "description": "Data is shown as % binding of max by normalizing the obtained MFI to the highest MFI measured. […] Data is shown as mean ± SD of one experiment measured in technical triplicates.\nSubsequently, stained target cells were incubated for indicated time points at either 4° C. or 37° C. Binding of PD-L1-specific TMs was analyzed via flow cytometry using an PE-labeled α-His Ab.", "data": [{"binder": "B1", "values": [{"measurement": "binding result", "result": "binds"}]}]}
